Drawing on article PMC7332344, this text covers stoichiometry N for one substance.

The target of the assay is Rhodobacter sphaeroides TSPO A139T mutant (Rhodobacter sphaeroides) (UniProt Q9RFC8). In words: native MS.

Take “Rhodobacter sphaeroides TSPO A139T mutant (from UniProt Q9RFC8 1-157) (natural protein)”: the stoichiometry N (usually the number of molecules, sites or subunits per partner or assembly) came to 2.
